Assay results published in the FLAb antibody collection (doi:10.1101/2023.12.08.570889).

Key:
[1] = biological target: IL36R; test: Kd (SPR)
[2] = biological target: TNFRSF9, Q07011; test: Kd (SPR)

Binder	Kd [1]	Kd [2]
unnamed (protein) chain 1: QVQLVQSGAEVKKPGASVKVSCKASGYSFTSSWIHWVKQAPGQGLEWMGEINPGNVRTNYNENFRNKVTMTVDTSISTAYMELSRLRSDDTAVYYCTRVVYGEPYFDYWGQGTLVTVSS chain 2: QIVLTQSPGTLSLSPGERATMTCTASSSVSSSYFHWYQQKPGQAPRLWIYRTSRLASGVPDRFSGSGSGTDFTLTISRLEPEDAATYYCHQFHRSPLTFGAGTKLEIK	0.649 nM	
unnamed (protein) chain 1: QVQLVQSGAEVKKPGASVKVSCKASGYSFTSNWIHWVKQAPGQGLEWMGEIYPGNSNTNYNENFRNKVTMTVDTSISTAYMELSRLRSDDTAVYYCTRVRYGEPWFDYWGQGTLVTVSS chain 2: QIVLTQSPGTLSLSPGERATMTCTASSSVSSSYFHWYQQKPGQAPRLWIYRTSRLASGVPDRFSGSGSGTDFTLTISRLEPEDAATYYCHQFHRSPLTFGAGTKLEIK	3.35 nM	
unnamed (protein) chain 1: QVQLVQSGAEVKKPGASVKVSCKASGYTFTSNWIHWVKQAPGQGLEWMGEIYPGNSNTNYNENFRNKVTMTVDTSISTAYMELSRLRSDDTAVYYCTRVRYGEPYFDYWGQGTLVTVSS chain 2: QIVLTQSPGTLSLSPGERATMTCTASSSVSSSYFHWYQQKPGQAPRLWIYRTSRLASGVPDRFSGSGSGTDFTLTISRLEPEDAATYYCHQFHRSPLTFGAGTKLEIK	14.6 nM	
unnamed (protein) chain 1: QVQLVQSGAEVKKPGASVKVSCKASGYSFTSSWIHWVKQAPGQGLEWMGEIYPGNSNTNYNENFRNKVTMTVDTSISTAYMELSRLRSDDTAVYYCTRVQYGEPYFDYWGQGTLVTVSS chain 2: QIVLTQSPGTLSLSPGERATMTCTASSSVSSSYFHWYQQKPGQAPRLWIYRTSRLASGVPDRFSGSGSGTDFTLTISRLEPEDAATYYCHQFHRSPLTFGAGTKLEIK	1.16 nM	
unnamed (protein) chain 1: QVQLVQSGAEVKKPGASVKVSCKASGYSFTSSWIHWVKQAPGQGLEWMGEINPGNVRTNYNENFRNKVTMTVDTSISTAYMELSRLRSDDTAVYYCTRMRYGEPWFDYWGQGTLVTVSS chain 2: QIVLTQSPGTLSLSPGERATMTCTASSSVSSSYFHWYQQKPGQAPRLWIYRTSRLASGVPDRFSGSGSGTDFTLTISRLEPEDAATYYCHQFHRSPLTFGAGTKLEIK	68.3 nM	
unnamed (protein) chain 1: QVQLVQSGAEVKKPGASVKVSCKASGYTFTSNWIHWVKQAPGQGLEWMGEIYPGNSNTNYNENFRNKVTMTVDTSISTAYMELSRLRSDDTAVYYCTRVRFGEPWFDYWGQGTLVTVSS chain 2: QIVLTQSPGTLSLSPGERATMTCTASSSVSSSYFHWYQQKPGQAPRLWIYRTSRLASGVPDRFSGSGSGTDFTLTISRLEPEDAATYYCHQFHRSPLTFGAGTKLEIK	46.1 nM	
unnamed (protein) chain 1: QVQLVQSGAEVKKPGASVKVSCKASGYSFTSSWIHWVKQAPGQGLEWMGEIYPGNSNTNYNENFRNKVTMTVDTSISTAYMELSRLRSDDTAVYYCTRLRYGEPYFDYWGQGTLVTVSS chain 2: QIVLTQSPGTLSLSPGERATMTCTASSSVSSSYFHWYQQKPGQAPRLWIYRTSRLASGVPDRFSGSGSGTDFTLTISRLEPEDAATYYCHQFHRSPLTFGAGTKLEIK	6.22 nM	
unnamed (protein) chain 1: QVQLVQSGAEVKKPGASVKVSCKASGYTFTSSWIHWVKQAPGQGLEWMGEIKPGNSNTNYNENFRNKVTMTVDTSISTAYMELSRLRSDDTAVYYCTRVSYGEPYFDYWGQGTLVTVSS chain 2: QIVLTQSPGTLSLSPGERATMTCTASSSVSSSYFHWYQQKPGQAPRLWIYRTSRLASGVPDRFSGSGSGTDFTLTISRLEPEDAATYYCHQFHRSPLTFGAGTKLEIK	138 nM	
unnamed (protein) chain 1: QVQLVQSGAEVKKPGASVKVSCKASGYTFTSNWIHWVKQAPGQGLEWMGEIYPGNSNTNYNENFRNKVTMTVDTSISTAYMELSRLRSDDTAVYYCTRVRYGYPYFDYWGQGTLVTVSS chain 2: QIVLTQSPGTLSLSPGERATMTCTASSSVSSSYFHWYQQKPGQAPRLWIYRTSRLASGVPDRFSGSGSGTDFTLTISRLEPEDAATYYCHQFHRSPLTFGAGTKLEIK	1.35 nM	
unnamed (protein) chain 1: QVQLVQSGAEVKKPGASVKVSCKASGYTFTSSWIHWVKQAPGQGLEWMGEIYPGNSNTNYNENFRNKVTMTVDTSISTAYMELSRLRSDDTAVYYCTRSRYGEPWFDYWGQGTLVTVSS chain 2: QIVLTQSPGTLSLSPGERATMTCTASSSVSSSYFHWYQQKPGQAPRLWIYRTSRLASGVPDRFSGSGSGTDFTLTISRLEPEDAATYYCHQFHRSPLTFGAGTKLEIK	157 nM	
unnamed (protein) chain 1: QVQLVQSGAEVKKPGASVKVSCKASGYTFTSNWIHWVKQAPGQGLEWMGEIYPGNSNTNYNENFRNKVTMTVDTSISTAYMELSRLRSDDTAVYYCTRVKYGEPYFDYWGQGTLVTVSS chain 2: QIVLTQSPGTLSLSPGERATMTCTASSSVSSSYFHWYQQKPGQAPRLWIYRTSRLASGVPDRFSGSGSGTDFTLTISRLEPEDAATYYCHQFHRSPLTFGAGTKLEIK	54.3 nM	
unnamed (protein) chain 1: QVQLVQSGAEVKKPGASVKVSCKASGYTFTSAWIHWVKQAPGQGLEWMGEIYPGNSNTNYNENFRNKVTMTVDTSISTAYMELSRLRSDDTAVYYCTRVRYGEPYFDYWGQGTLVTVSS chain 2: QIVLTQSPGTLSLSPGERATMTCTASSSVSSSYFHWYQQKPGQAPRLWIYRTSRLASGVPDRFSGSGSGTDFTLTISRLEPEDAATYYCHQFHRSPLTFGAGTKLEIK	0.757 nM	
unnamed (protein) chain 1: QVQLVQSGAEVKKPGASVKVSCKASGYTFTSSWIHWVKQAPGQGLEWMGEIYPGNSNTNYNENFRNKVTMTVDTSISTAYMELSRLRSDDTAVYYCTRVQYGEPYFDYWGQGTLVTVSS chain 2: QIVLTQSPGTLSLSPGERATMTCTASSSVSSSYFHWYQQKPGQAPRLWIYRTSRLASGVPDRFSGSGSGTDFTLTISRLEPEDAATYYCHQFHRSPLTFGAGTKLEIK	2.76 nM	
unnamed (protein) chain 1: QVQLVQSGAEVKKPGASVKVSCKASGYTFTSSWIHWVKQAPGQGLEWMGEIYPGNSNTNYNENFRNKVTMTVDTSISTAYMELSRLRSDDTAVYYCTRSRYGEPYFDYWGQGTLVTVSS chain 2: QIVLTQSPGTLSLSPGERATMTCTASSSVSSSYFHWYQQKPGQAPRLWIYRTSRLASGVPDRFSGSGSGTDFTLTISRLEPEDAATYYCHQFHRSPLTFGAGTKLEIK	38.2 nM	
unnamed (protein) chain 1: QVQLVQSGAEVKKPGASVKVSCKASGYTFTSNWIHWVKQAPGQGLEWMGEIYPGNSNTNYNENFRNKVTMTVDTSISTAYMELSRLRSDDTAVYYCTRVRYGEPWFDYWGQGTLVTVSS chain 2: QIVLTQSPGTLSLSPGERATMTCTASSSVSSSYFHWYQQKPGQAPRLWIYRTSRLASGVPDRFSGSGSGTDFTLTISRLEPEDAATYYCHQFHRSPLTFGAGTKLEIK	31.8 nM	
unnamed (protein) chain 1: QVQLVQSGAEVKKPGASVKVSCKASGYSFTSSWIHWVKQAPGQGLEWMGEIYPGNSNTNYNENFRNKVTMTVDTSISTAYMELSRLRSDDTAVYYCTRVRYGEPYFDYWGQGTLVTVSS chain 2: QIVLTQSPGTLSLSPGERATMTCTASSSVSSSYFHWYQQKPGQAPRLWIYRTSRLASGVPDRFSGSGSGTDFTLTISRLEPEDAATYYCHQFHRSPLTFGAGTKLEIK	0.933 nM	
unnamed (protein) chain 1: QVQLVQSGAEVKKPGASVKVSCKASGYTFTSNWIHWVKQAPGQGLEWMGEIYPGNSNTNYNENFRNKVTMTVDTSISTAYMELSRLRSDDTAVYYCTRVSYGEPYFDYWGQGTLVTVSS chain 2: QIVLTQSPGTLSLSPGERATMTCTASSSVSSSYFHWYQQKPGQAPRLWIYRTSRLASGVPDRFSGSGSGTDFTLTISRLEPEDAATYYCHQFHRSPLTFGAGTKLEIK	11 nM	
unnamed (protein) chain 1: QVQLVQSGAEVKKPGASVKVSCKASGYTFTSSWIHWVKQAPGQGLEWMGEIYPGNSNTNYNENFRNKVTMTVDTSISTAYMELSRLRSDDTAVYYCTRVRFGEPYFDYWGQGTLVTVSS chain 2: QIVLTQSPGTLSLSPGERATMTCTASSSVSSSYFHWYQQKPGQAPRLWIYRTSRLASGVPDRFSGSGSGTDFTLTISRLEPEDAATYYCHQFHRSPLTFGAGTKLEIK	1.03 nM	
unnamed (protein) chain 1: EVQLVQSGAEVKKPGESLRISCKGSGYSFSTYWISWVRQMPGKGLEWMGKIYPGDSYTNYSPSFQGQVTISADKSISTAYLQWSSLKASDTAMYYCSRGSGIFDYWGQGTLVTVSS chain 2: SYELTQPPSVSVSPGQTASITCSGDNIGDQYAHWYQQKPGQSPVLVIYQDKNRPSGIPERFSGSNSGNTATLTISGTQAMDEADYYCATYTGFGSLAVFGGGTKLTVL		295 nM
